The values below come from US20110040072A1, “MONO AND DI-SUBSTITUTED OXYCODONE COMPOUNDS AND COMPOSITIONS” (SHIRE LLC, priority 2006, published 2011).

Data set [1] can be described thus: Oral bioavailability / oral pharmacokinetics of oxycodone conjugates in rats. The following applies: for AUC % (Oral Bioavailability): reference = 100.
For data set [2] the following is noted: background statement; cited from earlier work.
Data set [3] is described as follows: Intranasal bioavailability of oxycodone conjugates in rats. The following applies: for AUC % (Intranasal Bioavailability): reference = 100.
Data set [4] in a line: Intravenous bioavailability of oxycodone conjugates in rats.
Setting [5] is: relative to OXY = 100, n = 4 animals, analysis by LC-MS.

For the compound Pro-Pro-Val-OC, the “AUC % (Oral Bioavailability)” value in data set [1] was found to be 152%. Also, the “Oral (% AUC)” value in data set [1] (setting [5]) came out at 152 % AUC.

With `COc1ccc2c3c1O[C@H]1C(OC(=O)[C@H](Cc4ccccc4)NC(=O)[C@H](CCCCN)NC(=O)[C@@H](N)CCCCN)=CC[C@@]4(O)[C@@H](C2)N(C)CC[C@]314` [Lys-Lys-Phe-OC], the “Oral (% AUC)” value in data set [1] (setting [5]) stood at 37 % AUC.

Regarding `COc1ccc2c3c1O[C@H]1C(OC(=O)[C@@H](NC(=O)[C@H](CCC(=O)O)NC(=O)[C@@H](N)CCC(=O)O)C(C)C)=CC[C@@]4(O)[C@@H](C2)N(C)CC[C@]314` [Glu-Glu-Val-OC], the “Oral (% AUC)” value in data set [1] (setting [5]) amounted to 55 % AUC.

As for `COc1ccc2c3c1O[C@H]1C(OC(=O)[C@@H](NC(=O)[C@H](CC(C)C)NC(=O)[C@@H](N)CC(C)C)C(C)C)=CC[C@@]4(O)[C@@H](C2)N(C)CC[C@]314` [Leu-Leu-Val-OC], the “Oral (% AUC)” value in data set [1] (setting [5]) came out at 81 % AUC.

For `COc1ccc2c3c1O[C@H]1C(OC(=O)[C@H](Cc4ccccc4)NC(=O)CNC(=O)CN)=CC[C@@]4(O)[C@@H](C2)N(C)CC[C@]314` [Gly-Gly-Phe-OC], the “Oral (% AUC)” value in data set [1] (setting [5]) was 163 % AUC.

For the compound `COc1ccc2c3c1O[C@H]1C(=O)CC[C@@]4(O)[C@@H](C2)N(C)CC[C@]314` [OXY, oxycodone], the “AUC % (Oral Bioavailability)” value in data set [1] was 100%. Moreover, in data set [1] (setting [5]), the “Oral (% AUC)” value amounted to 100 % AUC. In data set [2], the Therapeutic plasma concentration was 10 to 100 ng/mL and the toxic plasma concentration entry was “greater than 200 ng/mL”.

For OC-Succcinate, the “Oral (% AUC)” value in data set [1] (setting [5]) is listed as 79 % AUC.

In the case of `CC[C@H](C)[C@H](NC(=O)CNC(=O)CN)C(=O)OC1=CC[C@@]2(O)[C@H]3Cc4ccc(OC)c5c4[C@@]2(CCN3C)[C@H]1O5` [Gly-Gly-Ile-OC], the “Oral (% AUC)” value in data set [1] (relative to OXY = 100, dosed at 40% higher levels than calculated, n = 4 animals, LC-MS) is on record as 224 % AUC.

For Val-Val-Phe-OC, the “Oral (% AUC)” value in data set [1] (setting [5]) was determined as 120 % AUC.

Turning to `COc1ccc2c3c1O[C@H]1C(OC(=O)[C@@H](NC(=O)[C@H](CC(=O)O)NC(=O)[C@@H](N)CC(=O)O)C(C)C)=CC[C@@]4(O)[C@@H](C2)N(C)CC[C@]314` [Asp-Asp-Val-OC], the “Oral (% AUC)” value in data set [1] (setting [5]) was 40 % AUC.

For the compound `CC[C@H](C)[C@H](NC(=O)[C@H](CCCCN)NC(=O)[C@@H](N)CCCCN)C(=O)OC1=CC[C@@]2(O)[C@H]3Cc4ccc(OC)c5c4[C@@]2(CCN3C)[C@H]1O5` [Lys-Lys-Ile-OC], in data set [1] (setting [5]), the “Oral (% AUC)” value is reported as 74 % AUC.

Consider Tyr-Tyr-Ile-OC, for which, in data set [1] (setting [5]), the “Oral (% AUC)” value was found to be 85 % AUC.

`COc1ccc2c3c1O[C@H]1C(OC(=O)[C@H](CC(C)C)NC(=O)[C@H](CCCCN)NC(=O)[C@@H](N)CCCCN)=CC[C@@]4(O)[C@@H](C2)N(C)CC[C@]314` [Lys-Lys-Leu-OC]: the “Oral (% AUC)” value in data set [1] (setting [5]) is 46 % AUC.

Take `COc1ccc2c3c1O[C@H]1C(OC(=O)[C@@H](NC(=O)[C@H](CC(=O)O)NC(=O)[C@@H](N)CCC(=O)O)C(C)C)=CC[C@@]4(OC(=O)[C@@H](NC(=O)[C@H](CC(=O)O)NC(=O)[C@@H](N)CCC(=O)O)C(C)C)[C@@H](C2)N(C)CC[C@]314` [(EDV)2-OC, [Glu-Asp-Val]2-OC]: in data set [1], the “AUC % (Oral Bioavailability)” value amounted to 73%. Further, the “AUC % (Intranasal Bioavailability)” value in data set [3] came to 20%.

In the case of `CC[C@H](C)[C@H](N)C(=O)N[C@H](C(=O)N[C@H](C(=O)OC1=CC[C@@]2(O)[C@H]3Cc4ccc(OC)c5c4[C@@]2(CCN3C)[C@H]1O5)[C@@H](C)CC)[C@@H](C)CC` [Ile-Ile-Ile-OC], the “Oral (% AUC)” value in data set [1] (setting [5]) was determined as 83 % AUC.

For the compound `COc1ccc2c3c1O[C@H]1C(OC(=O)[C@H](Cc4ccccc4)NC(=O)[C@H](CCC(=O)O)NC(=O)[C@@H](N)CCC(=O)O)=CC[C@@]4(O)[C@@H](C2)N(C)CC[C@]314` [Glu-Glu-Phe-OC], the “Oral (% AUC)” value in data set [1] (setting [5]) came to 49 % AUC.

On to `COc1ccc2c3c1O[C@H]1C(OC(=O)[C@@H](NC(=O)[C@H](CCCCN)NC(=O)[C@@H](N)CCCCN)C(C)C)=CC[C@@]4(O)[C@@H](C2)N(C)CC[C@]314` [Lys-Lys-Val-OC], for which the “Oral (% AUC)” value in data set [1] (setting [5]) is recorded as 108 % AUC.

Turning to Phe-Phe-Ile-OC, the “Oral (% AUC)” value in data set [1] (setting [5]) is 59 % AUC.

Turning to `CC[C@H](C)[C@H](NC(=O)[C@H](CCC(=O)O)NC(=O)[C@@H](N)CCC(=O)O)C(=O)OC1=CC[C@@]2(O)[C@H]3Cc4ccc(OC)c5c4[C@@]2(CCN3C)[C@H]1O5` [Glu-Glu-Ile-OC], the “Oral (% AUC)” value in data set [1] (setting [5]) is given as 179 % AUC.

For the compound Phe-Phe-Val-OC, the “Oral (% AUC)” value in data set [1] (setting [5]) worked out at 32 % AUC.

Turning to `COc1ccc2c3c1O[C@H]1C(OC(=O)[C@@H]4CCCN4C(=O)[C@H](CCC(=O)O)NC(=O)[C@@H](N)CCC(=O)O)=CC[C@@]4(O)[C@@H](C2)N(C)CC[C@]314` [Glu-Glu-Pro-OC], the “Oral (% AUC)” value in data set [1] (setting [5]) is recorded as 71 % AUC.

Take `COc1ccc2c3c1O[C@H]1C(OC(=O)[C@H](CC(C)C)NC(=O)[C@H](CCC(=O)O)NC(=O)[C@@H](N)CCC(=O)O)=CC[C@@]4(O)[C@@H](C2)N(C)CC[C@]314` [Glu-Glu-Leu-OC]: in data set [1] (setting [5]), the “Oral (% AUC)” value was determined as 80 % AUC.

Turning to Tyr-Tyr-Phe-OC, in data set [1] (setting [5]), the “Oral (% AUC)” value is given as 73 % AUC.

Consider `COc1ccc2c3c1O[C@H]1C(OC(=O)[C@@H](NC(=O)[C@H](CCC(=O)O)NC(=O)[C@@H](N)C(C)C)C(C)C)=CC[C@@]4(OC(=O)[C@@H](NC(=O)[C@H](CCC(=O)O)NC(=O)[C@@H](N)C(C)C)C(C)C)[C@@H](C2)N(C)CC[C@]314` [(VEV)2-OC, [Val-Glu-Val]2-OC], for which, in data set [1], the “AUC % (Oral Bioavailability)” value is 104%. For the same compound, in data set [3], the “AUC % (Intranasal Bioavailability)” value amounted to 39%.

On to Tyr-Tyr-Pro-OC, for which the “Oral (% AUC)” value in data set [1] (setting [5]) was 59 % AUC.

As to `COc1ccc2c3c1O[C@H]1C(OC(=O)[C@@H](NC(=O)CNC(=O)[C@@H](N)CO)C(C)C)=CC[C@@]4(OC(=O)[C@@H](NC(=O)CNC(=O)[C@@H](N)CO)C(C)C)[C@@H](C2)N(C)CC[C@]314` [(SGV)2-OC, [Ser-Gly-Val]2-OC], the “AUC % (Oral Bioavailability)” value in data set [1] was determined as 103%. Moreover, in data set [3], the “AUC % (Intranasal Bioavailability)” value worked out at 64%. Also, the “AUC % (Intravenous Bioavailability)” value in data set [4] (reference = 100) was found to be 52%.

With Tyr-Tyr-Val-OC, the “AUC % (Oral Bioavailability)” value in data set [1] was 124%. Besides, the “Oral (% AUC)” value in data set [1] (setting [5]) was 124 % AUC.

`COc1ccc2c3c1O[C@H]1C(OC(=O)[C@H](CC(C)C)NC(=O)[C@@H]4CCCN4C(=O)[C@@H]4CCCN4)=CC[C@@]4(OC(=O)[C@H](CC(C)C)NC(=O)[C@@H]5CCCN5C(=O)[C@@H]5CCCN5)[C@@H](C2)N(C)CC[C@]314` [[PPL]2-OC, [Pro-Pro-Leu]2-OC]: in data set [3] (versus oxycodone), the “bioavailability by the intranasal route” value is on record as “substantially decreased”. Further, in data set [4] (versus oxycodone), the “bioavailability by the intravenous route” value was “substantially decreased”.

In the case of Pro-Pro-Ile-OC, the “AUC % (Oral Bioavailability)” value in data set [1] stood at 85%. In addition, the “Oral (% AUC)” value in data set [1] (setting [5]) amounted to 85 % AUC.

As for `COc1ccc2c3c1O[C@H]1C(OC(=O)[C@@H](NC(=O)[C@H](C)NC(=O)[C@H](C)N)C(C)C)=CC[C@@]4(O)[C@@H](C2)N(C)CC[C@]314` [Ala-Ala-Val-OC], the “Oral (% AUC)” value in data set [1] (setting [5]) was determined as 85 % AUC.

With `COc1ccc2c3c1O[C@H]1C(OC(=O)[C@@H](NC(=O)CNC(=O)CN)C(C)C)=CC[C@@]4(O)[C@@H](C2)N(C)CC[C@]314` [Gly-Gly-Val-OC], in data set [1] (setting [5]), the “Oral (% AUC)” value worked out at 123 % AUC.
